In patent publication US20160136295A1, “BIOMARKERS FOR TREATMENT WITH ANTI-TUBULIN CHEMOTHERAPEUTIC COMPOUNDS” (GENENTECH, INC., priority 2012, published 2016):

Assays:
Format in all cases: biochemical, human
[1] = test system: Mcl-1 S121; test: In vitro kinase reactions: percent phosphorylation of full-length recombinant Mcl-1 at S121; details: for Percent phosphorylation S121, AVE: average of INJ1 and INJ2; for Percent phosphorylation S121, INJ1: sample injection 1; for Percent phosphorylation S121, INJ2: sample injection 2
Procedure: (§1) To determine the suitability of residues in Mcl-1 as kinase substrates, 10 μM of Mcl-1 was incubated with selected kinase at enzyme concentrations between 25 and 100 nM. For these reactions the Mcl-1 was dialyzed into 20 mM Phosphate, 50 mM Tris pH 7.5 150 mM NaCl, 5 mM DTT and 0.5% CHAPS. The protein solution was further supplemented with MgCl2 to 10 mM and ATP to 1 mM prior to addition of kinase. Purified recombinant kinases were purchased from Invitrogen Co. (Carlsbad, Calif.).
(§2) 10 μl of each of the Mcl-1 kinase reactions (100 pmol) were loaded onto a 4-12% Bis-Tris gel for separation by SDS-PAGE after reduction. Mcl-1 bands were excised from the gel, dehydrated (50% acetonitrile in 50 mM ammonium bicarbonate then 100% acetonitrile washes), and incubated with 0.2 μg trypsin overnight at 37° C.
(§3) Samples were injected in duplicate via autosampler onto a nanoAcquity® UPLC (Waters, Milford, Mass.) and analyzed on-line via nanospray ionization into an LTQ-Orbitrap® mass spectrometer at a concentration of 300 fmol synthetic peptide mix per injection. Areas were integrated for the isotopic and kinase phosphorylated peptides, and compared to their non-phosphorylated peptide counterparts to obtain percent phosphorylation values.

[2] = test system: Mcl-1 T163; test: In vitro kinase reactions: percent phosphorylation of full-length recombinant Mcl-1 at T163; details: single kinase reactions; for Percent phosphorylation T163, AVE: average of INJ1 and INJ2; for Percent phosphorylation T163, INJ1: sample injection 1; for Percent phosphorylation T163, INJ2: sample injection 2
Procedure: as §1, §2, §3

[3] = test system: Mcl-1 S159/T163; test: In vitro kinase reactions: percent phosphorylation of full-length recombinant Mcl-1 at S159+T163; details: for Percent phosphorylation S159/T163, AVE: average; for Percent phosphorylation S159/T163, INJ1: sample injection 1; for Percent phosphorylation S159/T163, INJ2: sample injection 2
Procedure: as §1, §2, §3

[4] = test system: Mcl-1 T92; test: In vitro kinase reactions: percent phosphorylation of full-length recombinant Mcl-1 at T92; details: single kinase reactions, peak areas of 0 and 1P, triple charged state; for Percent phosphorylation T92, AVE: average; for Percent phosphorylation T92, INJ1: sample injection 1; for Percent phosphorylation T92, INJ2: sample injection 2
Procedure: as §1, §2, §3

[5] = % phos on S159+T163, CDK1 + kinase panel reactions
[6] = % phos on S159+T163, single kinase reactions

Molecule	Percent phosphorylation S121, AVE ([1]; CDK1 + kinase panel reactions) [%]	Percent phosphorylation S121, INJ1 ([1]; CDK1 + kinase panel reactions) [%]	Percent phosphorylation S121, INJ2 ([1]; CDK1 + kinase panel reactions) [%]	Percent phosphorylation S121, AVE ([1]; single kinase reactions) [%]	Percent phosphorylation S121, INJ1 ([1]; single kinase reactions) [%]	Percent phosphorylation S121, INJ2 ([1]; single kinase reactions) [%]	Percent phosphorylation T163, AVE [2] [%]	Percent phosphorylation T163, INJ1 [2] [%]	Percent phosphorylation T163, INJ2 [2] [%]	Percent phosphorylation S159/T163, AVE [3, 5] [%]	Percent phosphorylation S159/T163, INJ1 [3, 5] [%]	Percent phosphorylation S159/T163, INJ2 [3, 5] [%]	Percent phosphorylation S159/T163, AVE [3, 6] [%]	Percent phosphorylation S159/T163, INJ1 [3, 6] [%]	Percent phosphorylation S159/T163, INJ2 [3, 6] [%]	Percent phosphorylation T92, AVE [4] [%]	Percent phosphorylation T92, INJ1 [4] [%]	Percent phosphorylation T92, INJ2 [4] [%]
MAPK11: purified recombinant kinase purchased from Invitrogen (protein, UniProt Q15759 1-364, looked up) Mitogen-activated protein …: MSGPRAGFYRQELNKTVWEVPQRLQGLRPVGSGAYGSVCSAYDARLRQKVAVKKLSRPFQSLIHARRTYRELRLLKHLKHENVIGLLDVFTPATSIEDFSEVYLVTTLMGADLNNIVKCQALSDEHVQFLVYQLLRGLKYIHSAGIIHRDLKPSNVAVNEDCELRILDFGLARQADEEMTGYVATRWYRAPEIMLNWMHYNQTVDIWSVGCIMAELLQGKALFPGSDYIDQLKRIMEVVGTPSPEVLAKISSEHARTYIQSLPPMPQKDLSSIFRGANPLAIDLLGRMLVLDSDQRVSAAEALAHAYFSQYHDPEDEPEAEPYDESVEAKERTLEEWKELTYQEVLSFKPPEPPKPPGSLEIEQ	10.11	10.45	9.76	5.66	5.84	5.48	51.87	53.70	50.04	0.94	1.15	0.73	2.56	3.06	2.06	3.27	2.59	3.95
MAPK10: purified recombinant kinase purchased from Invitrogen (protein, UniProt P53779 1-464, looked up) Mitogen-activated protein …: MSLHFLYYCSEPTLDVKIAFCQGFDKQVDVSYIAKHYNMSKSKVDNQFYSVEVGDSTFTVLKRYQNLKPIGSGAQGIVCAAYDAVLDRNVAIKKLSRPFQNQTHAKRAYRELVLMKCVNHKNIISLLNVFTPQKTLEEFQDVYLVMELMDANLCQVIQMELDHERMSYLLYQMLCGIKHLHSAGIIHRDLKPSNIVVKSDCTLKILDFGLARTAGTSFMMTPYVVTRYYRAPEVILGMGYKENVDIWSVGCIMGEMVRHKILFPGRDYIDQWNKVIEQLGTPCPEFMKKLQPTVRNYVENRPKYAGLTFPKLFPDSLFPADSEHNKLKASQARDLLSKMLVIDPAKRISVDDALQHPYINVWYDPAEVEAPPPQIYDKQLDEREHTIEEWKELIYKEVMNSEEKTKNGVVKGQPSPSGAAVNSSESLPPSSSVNDISSMSTDQTLASDTDSSLEASAGPLGCCR	32.85	32.82	32.88	13.14	11.61	14.67	43.90	45.09	42.70	4.10	3.86	4.33	16.83	16.73	16.92	9.35	10.29	8.41
MAPK13: purified recombinant kinase purchased from Invitrogen (protein, UniProt O15264 1-365, looked up) Mitogen-activated protein …: MSLIRKKGFYKQDVNKTAWELPKTYVSPTHVGSGAYGSVCSAIDKRSGEKVAIKKLSRPFQSEIFAKRAYRELLLLKHMQHENVIGLLDVFTPASSLRNFYDFYLVMPFMQTDLQKIMGMEFSEEKIQYLVYQMLKGLKYIHSAGVVHRDLKPGNLAVNEDCELKILDFGLARHADAEMTGYVVTRWYRAPEVILSWMHYNQTVDIWSVGCIMAEMLTGKTLFKGKDYLDQLTQILKVTGVPGTEFVQKLNDKAAKSYIQSLPQTPRKDFTQLFPRASPQAADLLEKMLELDVDKRLTAAQALTHPFFEPFRDPEEETEAQQPFDDSLEHEKLTVDEWKQHIYKEIVNFSPIARKDSRRRSGMKL	20.30	20.33	20.26	8.21	10.06	6.35	64.78	65.53	64.03	0.56	0.74	0.38	4.70	5.77	3.62	22.75	22.96	22.54
MAPK12: purified recombinant kinase purchased from Invitrogen (protein, UniProt P53778 1-367, looked up) Mitogen-activated protein …: MSSPPPARSGFYRQEVTKTAWEVRAVYRDLQPVGSGAYGAVCSAVDGRTGAKVAIKKLYRPFQSELFAKRAYRELRLLKHMRHENVIGLLDVFTPDETLDDFTDFYLVMPFMGTDLGKLMKHEKLGEDRIQFLVYQMLKGLRYIHAAGIIHRDLKPGNLAVNEDCELKILDFGLARQADSEMTGYVVTRWYRAPEVILNWMRYTQTVDIWSVGCIMAEMITGKTLFKGSDHLDQLKEIMKVTGTPPAEFVQRLQSDEAKNYMKGLPELEKKDFASILTNASPLAVNLLEKMLVLDAEQRVTAGEALAHPYFESLHDTEDEPQVQKYDDSFDDVDRTLDEWKRVTYKEVLSFKPPRQLGARVSKETPL	18.12	18.73	17.51	11.00	10.71	11.28	53.34	55.05	51.63	0.00	0.00	0.00	0.00	0.00	0.00	69.58	71.57	67.59
MAPK8: purified recombinant kinase purchased from Invitrogen (protein, UniProt P45983 1-427, looked up) Mitogen-activated protein …: MSRSKRDNNFYSVEIGDSTFTVLKRYQNLKPIGSGAQGIVCAAYDAILERNVAIKKLSRPFQNQTHAKRAYRELVLMKCVNHKNIIGLLNVFTPQKSLEEFQDVYIVMELMDANLCQVIQMELDHERMSYLLYQMLCGIKHLHSAGIIHRDLKPSNIVVKSDCTLKILDFGLARTAGTSFMMTPYVVTRYYRAPEVILGMGYKENVDLWSVGCIMGEMVCHKILFPGRDYIDQWNKVIEQLGTPCPEFMKKLQPTVRTYVENRPKYAGYSFEKLFPDVLFPADSEHNKLKASQARDLLSKMLVIDASKRISVDEALQHPYINVWYDPSEAEAPPPKIPDKQLDEREHTIEEWKELIYKEVMDLEERTKNGVIRGQPSPLGAAVINGSQHPSSSSSVNDVSSMSTDPTLASDTDSSLEAAAGPLGCCR	70.06	68.97	71.14	21.56	17.66	25.46	56.77	60.42	53.11	9.45	10.13	8.76	16.98	15.54	18.42	6.04	5.99	6.08
